Measured values taken from the nanobody polyreactivity screen of Harvey et al. (2022).

Experiment: yeast display, Sf9 membrane polyspecificity reagent, FACS + sequencing; frameworks hold sequencing errors
Outline: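 A synthetic nanobody library was expressed on Saccharomyces cerevisiae BJ5465 by galactose induction for 36–48 hours. The library was stained for 1 hour at 4 °C with 10% biotinylated, detergent-solubilized Sf9 membrane reagent and enriched with streptavidin microbeads before FACS. Low and high (top ~1%) gates were set on anti-HA fluorescence for expression and streptavidin fluorescence for reagent binding, and each polyreactivity label reflects the gate of origin.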

Sequence	polyreactivity (PSR sort gate)
QVQLVESGGGLVQAGGSLRLSCAASGFTFNRNAMGWYIQAPGKERELVAAISWSGGSTYYADSVKGRFTISRDNAKNTVYLQMNSLKPQDTEVYYCAKGYRRVYGPFYFWGQGTQVTVSS	low polyreactivity
QVQLVESGGGLVQAGGSLRLSCAASGFTFNRYAMAWDRQAPGKERELVATITSGGNTYYADSVKGRFTIARDNAKNTVYLQMNSLKPEDTAVYYCNQLGWYSVYRRDYWGQGTQVTVSS	high polyreactivity
QVQLVESGGGLVQAGGSLRLSCAASGFTFNRYAMGWYIEAPGKERELVASITTGGRTNYADSVKGRFTISRDNAKNTVYLQMNSLKPVDTAVYYCAADYCYFYRYYYWGQGTQVTVSS	high polyreactivity
QVQLVESGGGLVQAGGSLRLSCAASGFTFNRYAMGWYRPAPGKERELVAAISRSTATTYYADSVKGRFTISRDNAMNTVYLQMNSLKPEDTAVFYCNSPQRYWPPYGYWGQGTQVTVSS	high polyreactivity
QVQLVESGGGLVQAGGSLRLSCAASGFTFNRYAMGWYRQAPGKERELVAAISWSGTSTYYADSVKGRFTISRDNAKNTVYLQMNSLKPEDPAVYYCAAYPALTGGLPKSRGYYWGQGTQVTVSS	high polyreactivity
QVQLVESGGGLVQAGGSLRLSCAASGFTFNRYAMGWYRQAPGKERELVARITRGGSTKYADSVKGRFTISRDNAKNTVYLQMNSLKPEDTAVYYCAADYGGFLGYDYWGQGTQVTVSS	high polyreactivity
QVQLVESGGGLVQAGGSLRLSCAASGFTFNRYAMGWYRQAPGKERELVATITSGGNTYYADSVKGRFTISRDNAKNTVYLQMNSLKPEDTAVYYCNKRGWYSVYRRDYWGQGTQVTVSS	high polyreactivity
QVQLVESGGGLVQAGGSLRLSCAASGFTFNRYVMGWYRQAPGKERELVAAIDSGDSTYYADSVKGRFTISRDNAKNTVYLQMNSLKPEDTAVFYCAAEFKSKFFSDIFDNDYDYWGQGTQVSVSS	high polyreactivity
QVQLVESGGGLVQAGGSLRLSCAASGFTFNSYDMYWVRQAPGKGLEWVSSINTNGGSTYYADSVKGRFTISRDNAKNTVYLQMNSLKPEDTAVYYCAADGDTVGHSYRYDYWGQGTQVTVSS	low polyreactivity
QVQLVESGGGLVQAGGSLRLSCAASGFTFNYNTMGWYRQAPGKERELVARISRSGGRTYYADSVKGRFTISRDNAKNTVYLQMNSLKPEDTAVYYCNTDYYGVRHRYDYWGQGTQVTVSS	high polyreactivity
QVQLVESGGGLVQAGGSLRLSCAASGFTFNYYAMGSYRQAPGKERELVAAITWRSGRTSYADSVKGRFTISRDNAKNTVYLQMNSLKPEDTAVYYCAKYPIYSGLTRYGYWGQGTQVTVSS	high polyreactivity
QVQLVESGGGLVQAGGSLRLSCAASGFTFNYYAMGWYRQAPGKERELVAAISRSGGNTYYADSVKGRFTISRDNAKNTVYLQMNSLKPEDTAVYYCAAYLRSYVRYYYWGQGTQVTVSS	high polyreactivity
QVQLVESGGGLVQAGGSLRLSCAASGFTFNYYPMGWYRQAPGKERELVAAIDSGGNTYYADSVKGRFTISRDNAKNTVYLQMNSLKPEDTAVYYCAAYRDYQYDFWGQGTQVTVSS	low polyreactivity
QVQLVESGGGLVQAGGSLRLSCAASGFTFPDYAMGWYRQAPGKERELVAAISSDGSTYYADSVKGPFTISRDNAKNTVYLQMNSLKPEDTAVYYCAAYVVWLYGDDYWGQGTQVTVSS	low polyreactivity
QVQLVESGGGLVQAGGSLRLSCAASGFTFPEYSMGWYRQAPGKERELVAAITRRGTTTYYADSVKGRFTISRYTAKNTVYLQMNILKPEDTAVYYCAALAWSAYDYWGQGTQVTVSS	high polyreactivity
QVQLVESGGGLVQAGGSLRLSCAASGFTFPFYTMGWYRQAPGKERELVAAISRSGASTFYADSVKGRFTISRDNAKNTGYLQMNSLKPEDTAVYYCAGRRGYAPYEYWGQGTQVTVSS	high polyreactivity
QVQLVESGGGLVQAGGSLRLSCAASGFTFPFYTMGWYRQAPGKERELVAAITRSGASTFYADSVKGRFTISRDNAKNTVYLQMNSLKPEDTAVYYCAARRGYAPYEYWGQGTQVNVSS	high polyreactivity
QVQLVESGGGLVQAGGSLRLSCAASGFTFPFYTMGWYRQAPGKERELVAAITRSGASTFYADSVKGRFTISRDNAMNTVYLQMNSLKPEDTAVYYCATQLHRYYQDDYWGQGTQVTVSS	high polyreactivity
QVQLVESGGGLVQAGGSLRLSCAASGFTFPGDAMGWYRQAPGKERELVAAIDTSGGNTYADSVKGRFTISRDNAKNTVYLQMNSLKPEDTAVYYCAADYYYVYSSFGHYYWGQGTQVTVSS	low polyreactivity
QVQLVESGGGLVQAGGSLRLSCAASGFTFPGYAMGWYRQAPGKERELVAAISKRGGSTYYADSVKGRFTISRDNAKNTVYLQMNSLKPEDTAVYYCAKSRRGSFYYPYTYTKSGYEYWGQGTQVTVSS	high polyreactivity
QVQLVESGGGLVQAGGSLRLSCAASGFTFPGYAMGWYRQAPGKERELVAAISSSGGSTYYADSVKGRFTISRDNAKNTVYLQMNSLKPEDTAVYYCAARHGQSWQWLEYDYWGQGTQVTVSS	low polyreactivity

Sequence	polyreactivity (PSR sort gate)
QVQLVESGGGLVQAGGSLRLSCAASGFTFPGYTKGWYIQAPGKERELVATISRSGGSMFYADSVKGRFTISRDNAKNTVYLQMNSLKPEDTAVYYCNKSPSWWRYKTGLDYWGQGTQVTVSS	high polyreactivity
QVQLVESGGGLVQAGGSLRLSCAASGFTFPKYAMGWYRQAPGKERELVAGITTGGSTYYADSVKGRFTISRDNAKNTVYLQMNSLKPEDTAVYYCAASGRLSLGGRFYDLGLRYDYWGQGTQVTVSS	low polyreactivity
QVQLVESGGGLVQAGGSLRLSCAASGFTFPLNAMGWYRQAPGKEREFVAAITYSGGGTYYADSVKGRFTISRDNAKNTVYLQMNSLKPEDTAVYYCAAERGYQAHPGQGDYWGQGTQVTVSS	high polyreactivity
QVQLVESGGGLVQAGGSLRLSCAASGFTFPRNAMGCYRQAPGKERELVAGISKSGGSTYYADSVKGRFTISRDNAKNTVYLQMNSLKPEDTAVYYCAKAVNSPRKYQLGNGYWGQGTQVTVSS	high polyreactivity
QVQLVESGGGLVQAGGSLRLSCAASGFTFPRYAMGWYREAPGKEREFVAAINRGGSTYYADSVKGRFTISRDNAKNTVYLQMNSLKPEDTAVYYCITDRKNRPSPGDYYWGQGTQVTVSS	low polyreactivity
QVQLVESGGGLVQAGGSLRLSCAASGFTFPRYAMGWYRQAPGKERELVAAITSGDRTYYADSVKGRFTISRDNAKNTVYLQMNSLKPEDTAVYYCATSSRYRYWHRYDYWGLGTQVTVSS	high polyreactivity
QVQLVESGGGLVQAGGSLRLSCAASGFTFPVNAMGWYRQAPGKERELVATINSGGSTNYADSVKGRFTISRDNAKNTVYLQMNSLKPEDTAVYYCAAVTTDGVYAFDYWGQGTQVTVSS	low polyreactivity
QVQLVESGGGLVQAGGSLRLSCAASGFTFPVYAMGWYREAPGKERELVAAISTSAGSTYYADSVKGRFSISRDNAKNTVYLQLNSLKPEDTAVYYCNADVAGGYGWKSYHGYDYWGQGTQVTVSS	high polyreactivity
QVQLVESGGGLVQAGGSLRLSCAASGFTFPWNVMGWYRQAPGKEREFVAAISKSAGSTFYADSVKGRFTISRDNAKNTVYLQMNSLKPEDTAVYYCAKPRVPGVHVQEMYYWGQGTQVTVSS	low polyreactivity
QVQLVESGGGLVQAGGSLRLSCAASGFTFPWYAMGWDRQAPGKERELVASISYRGDSTYYADSVKGRFTFSRDNAKNTVYLQMNSLKPEDTAVYYCNKRLASYYLPGFDYWGQGTQVSVSS	low polyreactivity
QVQLVESGGGLVQAGGSLRLSCAASGFTFPWYAMGWYRQAPGKERELVAAISTSGDSTYYADSVKGRFTISRDNAKNTVYLQMNSLKPEDTAVYYCAARVVRGRYGYWGQGTQVTVSS	high polyreactivity
QVQLVESGGGLVQAGGSLRLSCAASGFTFPWYAMGWYRQAPGKERELVATITRGGSTYYADSVKGRFTISRDNAKNTVYLQMNSLKPEDTAVYYCAVTYWRYHSYSPYDYWGQGTQVTVSS	high polyreactivity
QVQLVESGGGLVQAGGSLRLSCAASGFTFPWYTMGWYRQAPGKERELGAAINSRGGSTYYADSVKGRFTISRDNAKNTVYLQMNSLKPEDTAVYYCATRSFGRMDYWGQGTQVTVSS	high polyreactivity
QVQLVESGGGLVQAGGSLRLSCAASGFTFPYYAMGWYRQAPGKERELVAAISSGGNTNYADSVKGRFTISRDNAKNTVYLQMNSLKPEDTAVYYCAAVFLRYLNWSVKYDYWGQGTQVTVSS	low polyreactivity
QVQLVESGGGLVQAGGSLRLSCAASGFTFQENAMGWYRQAHGKERELVAAISTSGDSTYYADSVKGRFTISRDNAKNTVYLQMNSLKPEDTAVYYCATAYEVLVACVLYDYWGKGTQVTVSS	low polyreactivity
QVQLVESGGGLVQAGGSLRLSCAASGFTFQENAMGWYRQATGKERELVAAISKSGGITYYADSVKGRFTISRENAKNNVYLQMNSLKPEDTAVYYCNIGNAYVVYTSGYDYWGQGTQVTVSS	low polyreactivity
QVQLVESGGGLVQAGGSLRLSCAASGFTFQFYAMGWYRQAPGKERELVAAITWSGGSTYYADSVKGRFTISRDNAKNSVYLQLKSLKPEDTAVYFCAKDRRTYLSYIYDYWGQGTQVTVSS	high polyreactivity
QVQLVESGGGLVQAGGSLRLSCAASGFTFQIYAMGWYRQAPGKERELVAAITWSGGRTYYGDSVKGRFTISRDNAKNTVYLQMNSLKREDTAVYYSNARYTTGSDPGGPGTYGYWGQGTQVTVSS	low polyreactivity
QVQLVESGGGLVQAGGSLRLSCAASGFTFQRNAMGWYRPAPGKERELVAAISKSGGSTYYADSVKGRFTISRDNAKNTVYLQMNSLKPEDTAVYYCARDRGYQSGYDYWGQGTQVTVSS	high polyreactivity
QVQLVESGGGLVQAGGSLRLSCAASGFTFQRYAMGWYRQAPGKERELVAAISGSGGSTYYADSVKGRFTISRDNAKNTVYLQMNSLKPEDTAVYYCAARYKYKDLYRYDYWGQGTQVTVSS	high polyreactivity
